Experimental findings from paper PMC2710519 are described below.

This data set deals with RSC complex (17 subunits, 1.197 MDa);histone octamer (recombinant) (yeast;Xenopus laevis). The experiment in a line: AFM. The following applies: RSC:mononucleosome 1:3, AFM: 1 nM RSC with 21 nM 1 kbp DNA without ATP, or RSC:mononucleosome 1:3 for 30 min with or without 4 mM ATP or ATPgS, buffer, salt, pH and temperature not in ….

Take “601 mononucleosome with 236 and 252 bp arms (240/240, 635 bp)”: the binding signal (% of substrate RSC-bound) was 32 (4 mM ATP, 50% of RSC complexes nucleosome-bound); 52 (4 mM ATPgS, 76% of RSC complexes on bare DNA arms); 25 (no ATP, 72% of RSC complexes on bare DNA arms).
